# B1: Stage VI sporulation protein D (Bacillus subtilis), P37963 (parent)
# chain: MPQNHRLQFSVEESICFQKGQEVSELLSISLDPDIRVQEVNDYVSIIGSLELTGEYNIDQNKHTEEIYTDKRFVEQVRKREDGSAELTHCFPVDITIPKNKVSHLQDVFVFIDAFDYQLTDSRILTIQADLAIEGLLDDTQDKEPEIPLYEAPAAFREEELSEPPAHSVVEEPGASSAEEAVLQHEPPAEPPELFISKAGLREELETEKAESEPPESVASEPEAREDVKEEEESEELAVPETEVRAESETEESEPEPDPSEIEIQEIVKAKKETAEPAAAIADVREEADSPAETELREHVGAEESPALEAELHSETVIAKEKEETTVSPNHEYALRQEAQNEEAAQSDQADPALCQEEAEPDEALESVSEAALSIEDSRETASAVYMENDNADLHFHFNQKTSSEEASQEELPEPAYRTFLPEQEEEDSFYSAPKLLEEEEQEEESFEIEVRKTPSAEEPKEETPFQSFQLPESSETERKETDAVPRVAPAAETKEPQTKESDNSLYLTKLFTKEADEFSRMKICIVQQEDTIERLCERYEITSQQLIRMNSLALDDELKAGQILYIPQYKNSHA
# partner: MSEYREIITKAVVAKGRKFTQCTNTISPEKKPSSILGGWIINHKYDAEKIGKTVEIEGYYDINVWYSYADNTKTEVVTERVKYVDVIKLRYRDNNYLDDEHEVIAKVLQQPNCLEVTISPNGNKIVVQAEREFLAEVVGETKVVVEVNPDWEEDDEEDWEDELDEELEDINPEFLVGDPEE
# Variants of: B1
# Conditions: with cote_bacsu cotE
row,effect of a mutation on the interaction,Variant
1,decreasing interaction strength,I127A
2,decreasing interaction strength,L131A

# Variants of: B1
# Conditions: with cote_bacsu cotE
# Remark: another data set of the same source
row,effect of a mutation on the interaction,Variant
1,disrupting interaction,L131A

# From IntAct's records for PubMed 22773792
